Measurements taken from the supplement of paper PMC9170038.

System: MS2 coat protein
Test: apparent KD of MS2 coat protein; designed switch direction (-1 OFF switch, 1 ON switch): -1; higher = weaker reporter binding
Summary of the method: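 Three titration conditions were used: no input, 200 uM small-molecule ligand, and an oligonucleotide input. In each, SNAP-549-labelled MS2 coat protein was raised from 0.7 or 1.5 nM, doubling, to 3 µM over designed RNA switches transcribed on Illumina chips by stalled E. coli RNA polymerase. Curve fits of normalised cluster fluorescence gave values whose per-design median over clusters is the apparent KD.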

[1] = Eterna round: R95, input ligand: microRNA oligo, concentration not stated
[2] = input ligand: microRNA oligo, concentration not stated
[3] = Eterna round: R95, input ligand: FMN 200 uM
[4] = Eterna round: R95, input ligand: none

| Sequence | apparent KD of MS2 coat protein [1] [nM] | apparent KD of MS2 coat protein [2] [nM] | apparent KD of MS2 coat protein (input ligand: FMN 200 uM) [nM] | apparent KD of MS2 coat protein (input ligand: none) [nM] | also measured |
| --- | --- | --- | --- | --- | --- |
| UAUGUUUUUGUGAGGAUAUACUUUGUUUGGUCGUAGUAGAAGGCACAUGAGGAUCACCCAUGUAGAUUUUUGGU [JR_BME4_Sub010] (puzzle: Brourd's mod of Exclusion 4) | 22.9 | – | – | – | – |
| UGUGCGUAUGUGAGGAUAUGCUGGUCCUUGGAUCGGCAGAAGGCACAUGAGGAUCACCCAUGUGGUGUCGUUCA [salish99_Bmod_ex4_098] (puzzle: Brourd's mod of Exclusion 4) | 208 | – | – | – | – |
| CUGCUCCGUGUAGGAUAUGCAUACUCCCAUUAUGCAGAAGGACAUGAGGAUCACCCAUGUAUGUUAUUAUCACGUGUUGCGUAC [Design 14] (Eterna round: R96, puzzle: Exclusion NG 1) | – | 20 | – | – | – |
| AGCCCUGCAGGAUAUGCCCGGGAUAACAUGAGGAUCACCCAUGUGACUGAUUGUUAUUCUGCAGAAGGGCAUGGGA [JL-EX5-4.14 ViennaUCT mod] (Eterna round: R97, puzzle: Exclusion 5) | – | – | 335 | 494 | – |
| AUGAUGCAGUGAGGAUAUACAUGAGGAUCACCCAUGUUUUUUUUUUUAGAUACACUCCUUUUUUUGUAGAAGGCACUAUGAGUA [Skinny design] (Eterna round: R96, puzzle: Exclusion NG 2) | – | 24 | 121 | 46.3 | – |
| ACAUGAGGAUCACCCAUGUCUGGCGGGUCCUCUCCGGCUGUUGAGGAUAUAGUCCGGUAUCCGCGCUAGAAGGUGAGGGCCGGC [Aenatbe mod 19] (Eterna round: R96, puzzle: Exclusion NG 3) | – | 13.8 | 21.8 | 23.5 | – |
| GCCUCUCAUGUGAGGAUAUCCGGACUAUACAGACAGGAGAAGGCACAUGAGGAUCACCCAUGUCACGCACACUU [BmEX4 B.5] (Eterna round: R97, puzzle: Brourd's mod of Exclusion 4) | – | – | 27.1 | 189 | – |
| GAGAAGGUAGGAUAUACGAAUAAAGAGGGUAGGAAUAAGACACAUGAGGAUCACCCAUGUAGAAGGACCAAGAG [Mat - Exclusion 2 - Mod of my Tesla design - D50] (puzzle: Exclusion 2) | 20.3 | – | – | – | apparent KD of MS2 coat protein [3]: 37.1 nM; apparent KD of MS2 coat protein [4]: 21.4 nM |
| AGCUGUGGCCGAGGAUAUGACAUGAGGAUCACCCAUGUACAAGAUUAGGCCUGGUAACAGGCUCAUCAGAAGGCGGUCUCAGCA [Eli eng2 - 015] (Eterna round: R96, puzzle: Exclusion NG 2) | – | 9.52 | 10 | 13.9 | – |
| UAAUUGUGAGGAUAUCAGGUGUGCUAGCGUACUGGUACAUCUGAGAAGGCACAUGAGGAUCACCCAUGUUCCUU [Mat - Exclusion 4 - Mod of JL - D47] (puzzle: Exclusion 4) | 13.6 | – | – | – | – |
| ACAUGACUGCUAGGAUAUAGAUGACAUGAGGAUCACCCAUGUUGUCCCAUGUUUAUGGAAACGGACUAGAAGGAGCAGUAUAUG [Ex NG2 #13] (Eterna round: R96, puzzle: Exclusion NG 2) | – | 26.2 | 18.8 | 20.2 | – |
| AAGUACCGUCACGAUAGUGAUGGUACAACAAGUAAGUGAACAUGAGGAUCACCCAUGUCCUCUUUUGCUCGUCUUAU [Sensor 3 - 90] (puzzle: Sensor v3, turn-off variant 2) | 18.4 | – | – | – | apparent KD of MS2 coat protein [3]: 309 nM; apparent KD of MS2 coat protein [4]: 334 nM |
| UACGAGCUAGGAUAUGCUUUGGGCUCGCUUUCCUUCGAUAAACUUGAGGAUCACCCAAGUAGAAGGAGCUUGUA [Mod 33 - Jieux - Exclusion 2] (Eterna round: R97, puzzle: Exclusion 2) | – | – | 61.5 | 25.9 | – |
| CAAAAGGAAGGAUAUGCAUCGGGAGGUGCUCAGCAUCAAAUACAUGAGGAUCACCCAUGUAGAAGGUCUGAAAA [Edbile] (puzzle: Exclusion 2) | 31.5 | – | – | – | – |
